Values belong to the binder of their own block, whether it stands above or below them.
How the values were obtained:
[1] = biological target: T1, full-length recombinant His tagged CTNNBL1 (human, UniProt Q8WYA6 1-563); experiment: pull-down; His-CTNNBL1 (full length or [77–563]) as bait on Ni-NTA resin; 10–20 μg of each purified protein in pull down buffer, 1 h at 4°C; eluates on SDS-PAGE, Instant Blue; conditions: both partners purified
T1 construct: Homotrimer when alone in solution by SEC-MALS (186 kDa); also called His-CTNNBL1; full-length CTNNBL1; source: E. coli BL21 Rosetta (DE3)pLysS, purified (Ni-NTA, Resource Q)
T1 sequence (looked up): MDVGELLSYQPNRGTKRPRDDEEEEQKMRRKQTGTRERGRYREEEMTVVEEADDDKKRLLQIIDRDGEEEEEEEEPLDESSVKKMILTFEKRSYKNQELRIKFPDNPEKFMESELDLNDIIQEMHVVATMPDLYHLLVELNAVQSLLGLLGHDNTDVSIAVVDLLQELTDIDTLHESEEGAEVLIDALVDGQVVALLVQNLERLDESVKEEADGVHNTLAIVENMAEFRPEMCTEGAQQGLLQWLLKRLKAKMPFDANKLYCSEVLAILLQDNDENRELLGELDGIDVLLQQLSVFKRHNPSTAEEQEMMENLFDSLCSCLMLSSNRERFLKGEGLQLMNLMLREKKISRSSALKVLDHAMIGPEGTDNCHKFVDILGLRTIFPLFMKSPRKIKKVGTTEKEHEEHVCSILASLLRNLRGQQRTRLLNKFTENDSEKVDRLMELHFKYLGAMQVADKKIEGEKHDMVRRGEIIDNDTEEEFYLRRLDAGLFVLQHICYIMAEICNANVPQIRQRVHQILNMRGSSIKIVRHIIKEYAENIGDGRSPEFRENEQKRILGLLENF

[2] = biological target: the molecule itself; experiment: SEC-MALS; CTNNBL1 (full length or [77–563]) alone; also in high salt buffer (0.5 M NaCl) or with CWC15[80–229] added; Supplementary Figure S7
[3] = biological target: T2, CWC15[80–229] (human, UniProt Q9P013 80-229); experiment: SEC-MALS; mixture of purified His-CTNNBL1[77–563], CDC5L[1–195] and CWC15[80–229]; conditions: both partners purified
T2 construct: Tag cleaved off by HRV 3C protease for gel filtration, crosslinking and HDX; source: E. coli BL21 Rosetta (DE3)pLysS, purified (Glutathione-Sepharose 4B, HRV 3C cleavage, Resource Q)
T2 sequence (looked up): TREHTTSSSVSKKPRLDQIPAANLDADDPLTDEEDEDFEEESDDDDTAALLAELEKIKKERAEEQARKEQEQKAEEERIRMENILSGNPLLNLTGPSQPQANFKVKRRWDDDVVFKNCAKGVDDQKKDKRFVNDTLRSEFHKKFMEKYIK

- binding result [1]: binds
B1: full-length GST-CWC15 (natural protein, human, UniProt Q9P013 1-229, looked up)
chain: MTTAARPTFEPARGGRGKGEGDLSQLSKQYSSRDLPSHTKIKYRQTTQDAPEEVRNRDFRRELEERERAAAREKNRDRPTREHTTSSSVSKKPRLDQIPAANLDADDPLTDEEDEDFEEESDDDDTAALLAELEKIKKERAEEQARKEQEQKAEEERIRMENILSGNPLLNLTGPSQPQANFKVKRRWDDDVVFKNCAKGVDDQKKDKRFVNDTLRSEFHKKFMEKYIK
notes: source: E. coli BL21 Rosetta (DE3)pLysS, purified (Glutathione-Sepharose 4B)

B2: His-CTNNBL1[77–563] (domain or fragment, human, UniProt Q8WYA6 77-563, looked up)
chain: LDESSVKKMILTFEKRSYKNQELRIKFPDNPEKFMESELDLNDIIQEMHVVATMPDLYHLLVELNAVQSLLGLLGHDNTDVSIAVVDLLQELTDIDTLHESEEGAEVLIDALVDGQVVALLVQNLERLDESVKEEADGVHNTLAIVENMAEFRPEMCTEGAQQGLLQWLLKRLKAKMPFDANKLYCSEVLAILLQDNDENRELLGELDGIDVLLQQLSVFKRHNPSTAEEQEMMENLFDSLCSCLMLSSNRERFLKGEGLQLMNLMLREKKISRSSALKVLDHAMIGPEGTDNCHKFVDILGLRTIFPLFMKSPRKIKKVGTTEKEHEEHVCSILASLLRNLRGQQRTRLLNKFTENDSEKVDRLMELHFKYLGAMQVADKKIEGEKHDMVRRGEIIDNDTEEEFYLRRLDAGLFVLQHICYIMAEICNANVPQIRQRVHQILNMRGSSIKIVRHIIKEYAENIGDGRSPEFRENEQKRILGLLENF
notes: Homotrimer when alone in solution by SEC-MALS (165 kDa); also called N-terminal truncation mutant of CTNNBL1; source: E. coli BL21 Rosetta (DE3)pLysS, purified (Ni-NTA, Resource Q)
- stoichiometry N [2]: 3

- stoichiometry N [3]: 1
B3: CDC5L[1–195] (domain or fragment, human, UniProt Q99459 1-195, looked up)
chain: MPRIMIKGGVWRNTEDEILKAAVMKYGKNQWSRIASLLHRKSAKQCKARWYEWLDPSIKKTEWSREEEEKLLHLAKLMPTQWRTIAPIIGRTAAQCLEHYEFLLDKAAQRDNEEETTDDPRKLKPGEIDPNPETKPARPDPIDMDEDELEMLSEARARLANTQGKKAKRKAREKQLEEARRLAALQKRRELRAAG
notes: Tag cleaved off by TEV protease for gel filtration, crosslinking and HDX; source: E. coli BL21 Rosetta (DE3)pLysS, purified (amylose resin, TEV cleavage, Resource S)

Source: PMC4538830, “CTNNBL1 facilitates the association of CWC15 with CDC5L and is required to maintain the abundance of the Prp19 spliceosomal complex” (Nucleic Acids Research, 2015)
